Results on one molecule are retold here after paper PMC8818652, “Msi2‐mediated MiR7a‐1 processing repression promotes myogenesis”.

The target of data set [1] is HuR (ELAV-like protein 1) (UniProt P70372 1-326). The data set is described as follows: EMSA; HuR alone; 100 mM Tris-HCl pH 7.5, 7.5 mM KCl, 25 mM MgCl2, 375 mM NaCl, 12.5% glycerol, 5 mM DTT, 30 C 30 min (as printed, possibly 5x buffer); 6% native PAGE at 4 C. The note with it: protein: recombinant.
Data set [2] concerns the target HuR (ELAV-like protein 1);Msi2 (Musashi 2) (mouse?;mouse?, UniProt P70372;Q920Q6 1-326;1-346, |). Description: EMSA; HuR and Msi2 together, strong cooperative binding; 100 mM Tris-HCl pH 7.5, 7.5 mM KCl, 25 mM MgCl2, 375 mM NaCl, 12.5% glycerol, 5 mM DTT, 30 C 30 min (as printed, possibly 5x buffer); 6% native PAGE at 4 C. The note with it: protein: recombinant;recombinant; tags:
A general note: A gel shift assay detects complexes by their altered migration in electrophoresis.

HuR (ELAV-like protein 1), sequence (P70372 whole entry): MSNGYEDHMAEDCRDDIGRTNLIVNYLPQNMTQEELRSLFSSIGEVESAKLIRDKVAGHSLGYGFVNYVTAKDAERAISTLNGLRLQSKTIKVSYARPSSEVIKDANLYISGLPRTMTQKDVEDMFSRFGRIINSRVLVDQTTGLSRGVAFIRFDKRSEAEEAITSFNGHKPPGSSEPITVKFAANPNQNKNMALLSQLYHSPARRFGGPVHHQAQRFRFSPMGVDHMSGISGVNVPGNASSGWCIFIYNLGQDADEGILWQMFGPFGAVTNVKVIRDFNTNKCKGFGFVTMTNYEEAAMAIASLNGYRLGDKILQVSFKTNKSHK
HuR (ELAV-like protein 1);Msi2 (Musashi 2), sequence (P70372 whole entry, chain 1 of 2): as the sequence (P70372 whole entry) above
HuR (ELAV-like protein 1);Msi2 (Musashi 2), sequence (Q920Q6 whole entry, chain 2 of 2): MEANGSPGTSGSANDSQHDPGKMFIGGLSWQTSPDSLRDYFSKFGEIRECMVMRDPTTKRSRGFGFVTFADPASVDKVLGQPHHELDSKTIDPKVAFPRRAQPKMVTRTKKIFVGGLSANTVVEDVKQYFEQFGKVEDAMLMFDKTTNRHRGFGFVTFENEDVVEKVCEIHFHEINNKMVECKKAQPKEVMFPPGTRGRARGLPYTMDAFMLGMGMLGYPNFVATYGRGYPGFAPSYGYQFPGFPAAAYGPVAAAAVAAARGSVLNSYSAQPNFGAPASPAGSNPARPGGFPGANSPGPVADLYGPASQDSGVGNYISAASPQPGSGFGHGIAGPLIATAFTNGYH

B1: WT Flanking probe (ssRNA)
RNA: UAAUUCGUACUUUUUUUUUCUUUUCUUUUAUAGUGUGAA
In the case of B1, the binding result in data set [1] and in data set [2] was “binds” each time.
